Numbering of substitutions follows the chain as printed.

Test [1] deals with T1, human CD47 expressed on CHO-CD47 cells (human, UniProt Q08722 19-323).
T1 construct: whole, on cells; also called cellular CD47; full-length CD47
In words: flow cytometry on CHO-CD47 cells (MFI, FIG. 2). As to the method: The binding of the anti-CD47 scFvs to the surface of CHO-CD47 cells was determined by flow cytometry, and the data was expressed as mean fluorescence intensity (MFI).

For test [2], the target named is T2, human CD47 polypeptide (Met1-Pro139 of human CD47 fused with a Fc region) (human, UniProt Q08722 19-139).
T2 construct: range 1-139; Made in HEK293 cells and purified from the supernatant; also called CD47 protein; not shown: Fc region
In words: single colony ELISA, scFv supernatant on coated CD47 polypeptide. How it is done: Phages were infected into E. coli host cells followed by plating the infected E. coli cells on agar plate. Each colony was picked up and cultured in 2×YT (yeast extract tryptone) medium containing 100 μg/ml ampicillin with vigorous shacking at 37° C. After OD₆₀₀ of the culture was greater than 1, isopropyl β-d-1-thiogalactopyranoside (IPTG) was added to each culture and the final concentration of IPTG was 1 mM. The cultures were incubated at 37° C. overnight, and then centrifuged 4,000×g for 10 minutes. The scFvs were secreted and collected from the supernatant. The collected scFvs were added onto a 96-well plate coated with CD47 polypeptide followed by the analysis of ELISA so as to determining the binding affinity of the selected scFvs and CD47 polypeptide.

For test [3], the target named is T1, human CD47 expressed on CHO-CD47 cells. Description: flow cytometry, IgG on CHO-CD47 cells. As to the method:
The anti-CD47 scFvs were respectively expressed in their IgG formats in accordance with the procedure described in Materials and Methods. CHO cells expressing CD47 (CHO-CD47 cells) and wild-type CHO cells (CHO-WT cells) were respectively treated with anti-CD47 IgGs. After washing, the binding of the anti-CD47 IgGs was detected using a polyclonal APC-conjugated anti-human IgG antibody. Relative MFI was measured by flow cytometry. Antibody R23, a reference antibody constructed according to the sequences of ADI29341 disclosed in US20200181259A1, served as a positive control in this study.

Test [4] has as its target T2, human CD47 polypeptide (Met1-Pro139 of …). Description: ELISA on coated CD47 polypeptide (FIG. 1).

B1: scFv CD47-20 (scFv, V domains shown)
VL: DIQMTQSPSSLSASVGDRVTITCRASQDVHNKVAWYQQKPGKAPKLLIYYTSNLYSGVPSRFSGSGSGTDFTLTISSLQPEDFATYYCQQHFTYPLTFGQGTKVEIKR
VH: EVQLVESGGGLVQPGGSLRLSCAASGFTISNYYIHWVRQAPGKGLEWVAGIWPSGGSTSYADSVKGRFTISADTSKNTAYLQMNSLRAEDTAVYYCTRGGYAMDYWGQGTLVTVSS
notes: scFv
Take B1: the binding result in test [1] and in test [2] was “binds” each time.

B2: CD47-30 IgG (antibody, V domains shown)
VH: EVQLVESGGGLVQPGGSLRLSCAASGFTINNWWIHWVRQAPGKGLEWVAWIDPFNGDSDYADSVKGRFTISADTSKNTAYLQMNSLRAEDTAVYYCARGGFALDHWGQGTLVTVSS
VL: B1 VL with H30S, N31H, K32Y, Y50S, N53R, S56P, F92S, T93S, L96I
notes: IgG made in CHO cells; constant domains as for m19; also called antibody CD47-30
B2 had an EC50 in test [3] of 2.67 µg/mL.

B3: CD47-7 IgG (antibody, V domains shown)
VH: B1 VH with S30T, G50S, S54G, G55Y, S57N, S59G, T97A, A102S, Y105F
VL: B1 VL with H30Y, N31T, K32R, S52R, H91A, F92A, T93N
notes: IgG made in CHO cells; constant domains as for m19; also called antibody CD47-7
Regarding B3, in test [3], a half-maximal effect (EC50) was put at 2.44 µg/mL.

B4: CD47-26 IgG (antibody, V domains shown)
VH: B1 VH with S30T, Y32F, G50K, W52T, S54Y, G55N, S57D, S59H
VL: B1 VL with H30S, K32Y, Y50G, N53R, S56P, F92S, T93S
notes: IgG made in CHO cells; constant domains as for m19; also called antibody CD47-26
For the molecule B4, the EC50 in test [3] was 2.05 µg/mL.

B5: scFv CD47-32 (scFv, V domains shown)
VL: B1 VL with N31Y, K32T, Y50G, S52N, N53R, S56T, T93N, Y94F, L96I
VH: B2 VH with W32F, W50N, D52S, N55T, S58T, D59R, F101Y, L103M, H105I
notes: scFv
Turning to B5, the binding result in test [1] and in test [2] was “binds” in each case.

B6: scFv CD47-6 (scFv, V domains shown)
VL: B1 VL with H30S, N31S, K32R, T93N
VH: B2 VH with N30T, W50T, D52S, F54Y, N55S, S58T, D59H, F101Y, L103M
notes: scFv
On to B6, for which the binding result in test [4] and in test [1] was “binds” throughout.

B7: scFv CD47-5 (scFv, V domains shown)
VL: B1 VL with Y50S, T51A, S52T, N53R, S56P, T93N
VH: B2 VH with N30T, W32Y, W50H, D52W, F54G, N55V, S58T, L103M, H105L
notes: scFv
Take B7: the binding result in test [4] and in test [1] was “binds” each time.

B8: scFv CD47-27 (scFv, V domains shown)
VL: B1 VL with K32G, Y49F, Y50R, N53W, Y55L, H91G, F92S, T93S, Y94F, L96F
VH: B2 VH with W32Y, W50R, D52S, N55D, D57G, S58T, D59Y, F101Y, L103M, H105L
notes: scFv
On to B8, for which the binding result in test [1] and in test [2] was “binds” in each case.

B9: scFv CD47-28 (scFv, V domains shown)
VL: B1 VL with N31G, T51A, S52R, T85S, H91Y, T93N, Y94F
VH: B1 VH with S30T, Y32W, Y33W, G50E, W52N, S54F, S57N, S59Y
notes: scFv
Consider B9, for which the binding result in test [1] and in test [2] was “binds” throughout.

B10: scFv CD47-8 (scFv, V domains shown)
VL: B1 VL with N31Y, K32A, Y50G, S52N, N53R, S56P, F92S, T93N, Y94F
VH: EVQLVESGGGLVQPGGSLRLSCAASGFTINNFYIHWVRQAPGKGLEWVASIWPWSGETGYADSVKGRFTIGADTSKNTAYLQMNSLRAEDTAVYYCARGGFAMDFWGQGTLVTVSS
notes: scFv
In the case of B10, the binding result in test [4] and in test [1] was “binds” in each case.

B11: CD47-2 IgG (antibody, V domains shown)
VH: B10 VH with N30S, F32S, Y33F, S50Y, E57S, G71S, A102S, F105H
VL: B1 VL with H30S, N31S, Y50G, S52N, N53R, S56P, H91S, F92S, T93N
notes: IgG made in CHO cells from the scFv; The VL-CL junction was not checked (VL ends in ...EIKR); also called antibody CD47-2
B11 returned an EC50 in test [3] of 2.34 µg/mL.

B12: scFv CD47-31 (scFv, V domains shown)
VL: B1 VL with N31S, Y50S, S52N, N53R, F92S, T93N, L96V
VH: B1 VH with Y32W, Y33W, G50A, W52N, S54F, G55N, S57R, S59D
notes: scFv
Take B12: the binding result in test [1] and in test [2] was “binds” throughout.

B13: scFv CD47-29 (scFv, V domains shown)
VL: B1 VL with N31S, Y50S, S52N, N53R, S56P
VH: B2 VH with N30T, W50G, D52T, F54Y, N55S, S58T, D59Y, F101Y, L103I, H105N
notes: scFv
In the case of B13, the binding result in test [1] and in test [2] was “binds” throughout.

B14: scFv CD47-9 (scFv, V domains shown)
VL: B1 VL with H30S, K32R, Y50G, S52N, N53R, S56T, T93N, L96I
VH: B2 VH with N31S, W50K, D52S, S58T, D59H, F101Y, L103M, H105I
notes: scFv
On to B14, for which the binding result in test [4] and in test [1] was “binds” throughout.

B15: scFv CD47-14 (scFv, V domains shown)
VL: B1 VL with H30S, N31T, Y50F, S52R, F92S, T93N, L96V
VH: B1 VH with Y32W, Y33W, W52S, S54Y, G55S, S57K, S59D, T97A, Y105L
notes: scFv
On to B15, for which the binding result in test [4] and in test [1] was “binds” each time.

B16: Antibody R23 (antibody, from another filing, V domains shown)
VH: QVQLQESGPGLVKPSETLSLTCTVSGGSIEHYYWSWIRQPPGKGLEWIGYIYYSGSTNYNPSLKSRVTISVDTSKNQFSLKLSSVTAADTAVYYCARGKTGSAAWGQGTLVTVSS
VL: DIQMTQSPSSVSASVGDRVTITCRASQGISRWLAWYQQKPGKAPKLLIYAASSLQSGVPSRFSGSGSGTDFTLTISSLQPEDFATYYCQQTVSFPITFGGGTKVEIKR
In test [3], B16 came in with an EC50 of 4.18 µg/mL.

B17: scFv CD47-4 (scFv, V domains shown)
VL: DIQMTQSPSSLSASVGDRVTITCRASQSVDNGVAWYQQKPGKAPKLLIYSATRLYPGVLSRFSGSGSGTDFTLTISSLQPEDFATYYCQQSSTFPLTFGQGTKVEIKR
VH: EVQLVESGGGLVQPGGSLRLSCAASGFTINDYWIHWVRQAPGKGLEWVAHIWPTYGGTHYADSVKGRFTISADTSKNTAYLQMNSLRAEDAAVYYCARGGYSLDIWGQGTLVTVSS
notes: scFv
For B17, the binding result in test [4] and in test [1] was “binds” in each case.

B18: scFv CD47-22 (scFv, V domains shown)
VL: DIQMTQSPSSLSASVGDRVTITCRASQDVHSWVAWYQQKPGKAPKLLISRATWLASGVPSRFSGSGSGTDFTLTISSLQPEDFATYYCQQSSNFPLTFGQGTKVEIKR
VH: EVQLVESGGGLVQPGGSLRLSCAASGFTINDYGIHWVRQAPGKGLEWVAGIGPFWGSTFYADSVKGRFTISADTSKNTAYLQMNSLRAEDTAVYYCARWMWGRWSAMDYWGQGTLVTVSS
notes: scFv
With B18, the binding result in test [1] and in test [2] was “binds” in each case.

B19: scFv CD47-3 (scFv, V domains shown)
VL: B18 VL with H30S, S31N, W32R, T52N, W53G, S91G, N93H, L96I
VH: B2 VH with N30S, W50H, D52G, F54T, N55V, D57K, S58T, D59Y, L103M
notes: scFv
B19: the binding result in test [1] and in test [2] was “binds” throughout.

For the origin of these results see US20220348652A1 (ANTAIMMU BIOMED, published 2022).
